According to US20120219551A1:
“And” between values parts separate entries of the source, which are not always exact repeats. Equal values may be shown once.

Tests used:
[1] = molecular target: FcγRIIIA on natural killer cells of human donor PBMC (human) (UniProt P08637); assay: cell-based or functional assay
[2] = molecular target: soluble dimeric FcγRIIB-Fc fusion protein (extracellular domain of FcγRIIB fused to hinge-CH2-CH3 of human IgG2) (human) (UniProt P31994); assay: ELISA
[3] = molecular target: soluble monomeric FcγRIIIA (extracellular region of FcγRIIIA joined to the linker-AVITAG sequence) (human) (UniProt P08637); assay: ELISA
[4] = molecular target: soluble dimeric FcγRIIB-Fc fusion protein (extracellular domain of FcγRIIB fused to hinge-CH2-CH3 of human IgG2) (human) (UniProt P31994); assay: SPR (BIAcore), Ab captured on BSA-FITC, separate fit 200/800 nM
[5] = molecular target: soluble monomeric FcγRIIIA (extracellular region of FcγRIIIA joined to the linker-AVITAG sequence) (human) (UniProt P08637); assay: as above
FcγRIIB (CD32B) (human) [6] = molecular target: FcγRIIB (CD32B) (human) (UniProt P31994); assay: BIAcore (as Table 27); cells shifted one column to the left
FcγRIIB (CD32B) (human) [7] = molecular target: FcγRIIB (CD32B) (human) (UniProt P31994); assay: BIAcore (as Table 27)
[8] = molecular target: FcγRIIIA (CD16A), V158 allotype (human) (UniProt P08637); assay: BIAcore (as Table 27)
[9] = molecular target: FcγRIIA (CD32A), H131 allotype (human) (UniProt P12318); assay: BIAcore
FcγRIIB (CD32B) (human) [10] = molecular target: FcγRIIB (CD32B) (human) (UniProt P31994); assay: BIAcore
[11] = molecular target: FcγRIIIA (CD16A), V158 allotype (human) (UniProt P08637); assay: BIAcore
[12] = molecular target: FcγRIIIA (CD16A), F158 allotype (human) (UniProt P08637); assay: BIAcore
[13] = molecular target: FcγRIIIA (CD16A), F158 allotype (human) (UniProt P08637); assay: BIAcore (as Table 27)
[14] = molecular target: FcγRIIA (CD32A), H131 allotype (human) (UniProt P12318); assay: not stated; human FcRs
FcγRIIB (CD32B) (human) [15] = molecular target: FcγRIIB (CD32B) (human) (UniProt P31994); assay: not stated; human FcRs
[16] = molecular target: FcγRIIIA (CD16A), V158 allotype (human) (UniProt P08637); assay: not stated; human FcRs
[17] = molecular target: FcγRIIIA (CD16A), F158 allotype (human) (UniProt P08637); assay: not stated; human FcRs
[18] = molecular target: 2aHFcagl (FcγRIIA 131H-Fc fusion) (human) (UniProt P12318)
[19] = molecular target: 2bFcagl (FcγRIIB-Fc fusion) (human) (UniProt P31994)
[20] = molecular target: 2aRFcagl (FcγRIIA 131R-Fc fusion) (human) (UniProt P12318)
[21] = molecular target: FcγRIIIA (CD16A), V158 allotype (human) (UniProt P08637)
[22] = molecular target: FcγRIIIA (CD16A), F158 allotype (human) (UniProt P08637)

Chain of FcγRIIIA (CD16A), F158 allotype (human) (P08637 17-208 limits assumed): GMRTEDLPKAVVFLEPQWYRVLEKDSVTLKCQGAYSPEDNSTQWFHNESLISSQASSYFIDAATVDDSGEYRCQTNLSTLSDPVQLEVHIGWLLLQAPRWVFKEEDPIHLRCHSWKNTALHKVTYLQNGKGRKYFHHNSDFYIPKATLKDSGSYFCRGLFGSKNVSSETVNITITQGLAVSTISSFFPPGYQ
Chain of soluble monomeric FcγRIIIA (extracellular region of FcγRIIIA joined to the linker-AVITAG sequence) (human) (P08637 17-208): as the sequence (P08637 17-208 limits assumed) above
Chain of FcγRIIIA on natural killer cells of human donor PBMC (human) (P08637 17-254): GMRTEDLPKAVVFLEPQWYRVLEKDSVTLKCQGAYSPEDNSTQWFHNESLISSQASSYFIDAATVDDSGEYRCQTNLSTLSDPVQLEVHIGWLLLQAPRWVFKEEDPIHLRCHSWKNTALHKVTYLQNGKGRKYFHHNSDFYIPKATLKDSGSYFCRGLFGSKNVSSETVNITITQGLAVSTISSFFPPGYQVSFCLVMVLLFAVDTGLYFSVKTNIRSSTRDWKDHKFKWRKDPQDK
Chain of FcγRIIB (CD32B) (human) (P31994 43-217 limits assumed): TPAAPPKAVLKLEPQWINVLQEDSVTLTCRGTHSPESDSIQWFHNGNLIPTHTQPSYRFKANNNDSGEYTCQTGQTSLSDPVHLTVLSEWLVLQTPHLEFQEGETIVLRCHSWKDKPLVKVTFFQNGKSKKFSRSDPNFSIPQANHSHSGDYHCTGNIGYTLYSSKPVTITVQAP
Chain of soluble dimeric FcγRIIB-Fc fusion protein (extracellular domain of FcγRIIB fused to hinge-CH2-CH3 of human IgG2) (human) (P31994 43-217): as the sequence (P31994 43-217 limits assumed) above
Chain of 2aHFcagl (FcγRIIA 131H-Fc fusion) (human) (P12318 34-217): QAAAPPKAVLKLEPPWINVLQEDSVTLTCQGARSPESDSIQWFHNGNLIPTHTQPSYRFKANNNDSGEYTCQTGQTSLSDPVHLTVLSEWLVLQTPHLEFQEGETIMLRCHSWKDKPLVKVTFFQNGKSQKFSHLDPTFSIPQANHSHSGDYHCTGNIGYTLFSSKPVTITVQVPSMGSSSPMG
Chain of FcγRIIA (CD32A), H131 allotype (human) (P12318 34-217 limits assumed): as the sequence (P12318 34-217) above
Chain of FcγRIIIA (CD16A), V158 allotype (human) (P08637 17-208 F176V limits assumed): as the sequence (P08637 17-208 limits assumed) above, with F160V counted along it
Chain of 2bFcagl (FcγRIIB-Fc fusion) (human) (P31994 43-217): as the sequence (P31994 43-217 limits assumed) above
Chain of 2aRFcagl (FcγRIIA 131R-Fc fusion) (human) (P12318 34-217 H167R): as the sequence (P12318 34-217) above, with H134R counted along it

## ch4-4-20 Mut14 (K288M, K334E) (antibody)
[1]
  ADCC, %: 28%
[2]
  ELISA, OD: 0.13 OD
[3]
  ELISA, OD: 1.1 OD
[4]
  Kd: 0.0956 µM
  koff: 0.089 s⁻¹
[5]
  Kd: 0.0754 µM
  koff: 0.1 s⁻¹
  kon: 1.37e+06 M⁻¹ s⁻¹

## ch4-4-20 Mut16 (F372Y) (antibody)
[1]
  ADCC, %: 15%
[2]
  ELISA, OD: 1.55 OD
[3]
  ELISA, OD: 1 OD
[5]
  Kd: 0.0848 µM

## ch4-4-20 Mut18 (K326E) (antibody)
[1]
  ADCC, %: 28%
[2]
  ELISA, OD: 1.25 OD
[3]
  ELISA, OD: 1 OD
[4]
  Kd: 0.0517 µM
  koff: 0.043 s⁻¹
[5]
  Kd: 0.092 µM
  koff: 0.112 s⁻¹
  kon: 1.23e+06 M⁻¹ s⁻¹

## ch4-4-20 Mut19 (K334N, K246I) (antibody)
[1]
  ADCC, %: 11%
[3]
  ELISA, OD: 0.75 OD
[4]
  Kd: 0.0453 µM

## ch4-4-20 Mut23 (K334E, R292L) (antibody)
[1]
  ADCC, %: 25%
[2]
  ELISA, OD: 0.1 OD
[3]
  ELISA, OD: 1.25 OD
[4]
  Kd: 0.108 µM
  koff: 0.107 s⁻¹
[5]
  Kd: 0.0702 µM
  koff: 0.105 s⁻¹
  kon: 1.43e+06 M⁻¹ s⁻¹

## immunoglobulin with Fc variant D270E, G316D, P396L, R416G (antibody)
FcγRIIB (CD32B) (human) [6]
  Koff WT/Koff mutant: 1.07
FcγRIIB (CD32B) (human) [7]
  Koff WT/Koff mutant: 1.07
[8]
  Koff WT/Koff mutant: 1.22
[9]
  Koff WT/Koff mutant: 0.95
FcγRIIB (CD32B) (human) [10]
  Koff WT/Koff mutant: 1.07
[11]
  Koff WT/Koff mutant: 1.22
[12]
  Koff WT/Koff mutant: 0.94

## immunoglobulin with Fc variant D270E, G316D, R416G (antibody)
FcγRIIB (CD32B) (human) [7]
  Koff WT/Koff mutant: 0.78
[8]
  Koff WT/Koff mutant: 2.18
[13]
  Koff WT/Koff mutant: 2.49
[14]
  fold change vs wild-type affinity: 0.4 fold
FcγRIIB (CD32B) (human) [15]
  fold change vs wild-type affinity: -1.7 fold
[16]
  fold change vs wild-type affinity: 0.4 fold
[17]
  fold change vs wild-type affinity: 0.1 fold
[9]
  Koff WT/Koff mutant: 1.95
FcγRIIB (CD32B) (human) [10]
  Koff WT/Koff mutant: 0.78
[11]
  Koff WT/Koff mutant: 2.18
[12]
  Koff WT/Koff mutant: 2.49

## immunoglobulin with Fc variant F243L, R292P (antibody)
FcγRIIB (CD32B) (human) [6]
  Koff WT/Koff mutant: 0.12
FcγRIIB (CD32B) (human) [7]
  Koff WT/Koff mutant: 0.12 and 0.16
[8]
  Koff WT/Koff mutant: 4.73 and 4
[13]
  Koff WT/Koff mutant: 1.67
[14]
  fold change vs wild-type affinity: -0.9 fold
FcγRIIB (CD32B) (human) [15]
  fold change vs wild-type affinity: -5.3 fold
[16]
  fold change vs wild-type affinity: 3 fold
[17]
  fold change vs wild-type affinity: 0.7 fold
[9]
  Koff WT/Koff mutant: 0.34 and 0.52
FcγRIIB (CD32B) (human) [10]
  Koff WT/Koff mutant: 0.12 and 0.16
[11]
  Koff WT/Koff mutant: 4.73 and 4
[12]
  Koff WT/Koff mutant: 0.6 and 1.67

## immunoglobulin with Fc variant F243L, R292P, V305I (antibody)
[8]
  Koff WT/Koff mutant: 2.56
[13]
  Koff WT/Koff mutant: 1.43
[14]
  fold change vs wild-type affinity: -3.3 fold
FcγRIIB (CD32B) (human) [15]
  fold change vs wild-type affinity: -13.3 fold
[16]
  fold change vs wild-type affinity: 1.6 fold
[17]
  fold change vs wild-type affinity: 0.4 fold
[9]
  Koff WT/Koff mutant: 0.23
[11]
  Koff WT/Koff mutant: 2.56
[12]
  Koff WT/Koff mutant: 1.43

## immunoglobulin with Fc variant L234F, F243L, R292P, Y300L (antibody)
[18]
  binding relative to wt (wt = 1): 0.3
[19]
  binding relative to wt (wt = 1): 0.2
[20]
  binding relative to wt (wt = 1): 0.2
[21]
  binding relative to wt (wt = 1): 1.7
[22]
  binding relative to wt (wt = 1): 1.6

## immunoglobulin with Fc variant L235I, F243L, R292P, Y300L (antibody)
[18]
  binding relative to wt (wt = 1): 0.5
[19]
  binding relative to wt (wt = 1): 0.2
[20]
  binding relative to wt (wt = 1): 0.1
[21]
  binding relative to wt (wt = 1): 2.6
[22]
  binding relative to wt (wt = 1): 3.3

## immunoglobulin with Fc variant L235Q, F243L, R292P, Y300L (antibody)
[18]
  binding relative to wt (wt = 1): 0.2
[21]
  binding relative to wt (wt = 1): 1.8

## immunoglobulin with Fc variant P396L (antibody)
FcγRIIB (CD32B) (human) [7]
  Koff WT/Koff mutant: 2.58
[8]
  Koff WT/Koff mutant: 1.27
[13]
  Koff WT/Koff mutant: 1.73
[14]
  fold change vs wild-type affinity: 0.6 fold
FcγRIIB (CD32B) (human) [15]
  fold change vs wild-type affinity: 1.6 fold
[16]
  fold change vs wild-type affinity: 0.3 fold
[17]
  fold change vs wild-type affinity: 0.7 fold
[9]
  Koff WT/Koff mutant: 1.63
FcγRIIB (CD32B) (human) [10]
  Koff WT/Koff mutant: 2.58
[11]
  Koff WT/Koff mutant: 1.27
[12]
  Koff WT/Koff mutant: 1.73

## immunoglobulin with Fc variant S239D, A330L, I332E (control XmAb) (antibody)
[14]
  fold change vs wild-type affinity: 0 fold
FcγRIIB (CD32B) (human) [15]
  fold change vs wild-type affinity: 0.74 fold
[16]
  fold change vs wild-type affinity: 13.9 fold
[17]
  fold change vs wild-type affinity: 8.1 fold

## immunoglobulin with Fc variant S298A, E333A, K334A (control AAA) (antibody)
[14]
  fold change vs wild-type affinity: -3.3 fold
FcγRIIB (CD32B) (human) [15]
  fold change vs wild-type affinity: -2.5 fold
[16]
  fold change vs wild-type affinity: 0.6 fold
[17]
  fold change vs wild-type affinity: 0.1 fold

## immunoglobulin with Fc variant Y300L (antibody)
FcγRIIB (CD32B) (human) [7]
  Koff WT/Koff mutant: 1.18
[8]
  Koff WT/Koff mutant: 1.01
[14]
  fold change vs wild-type affinity: 1.9 fold
FcγRIIB (CD32B) (human) [15]
  fold change vs wild-type affinity: 0.2 fold
[16]
  fold change vs wild-type affinity: 0 fold
[17]
  fold change vs wild-type affinity: 0.2 fold
[9]
  Koff WT/Koff mutant: 1.86
FcγRIIB (CD32B) (human) [10]
  Koff WT/Koff mutant: 1.18
[11]
  Koff WT/Koff mutant: 1.01
[12]
  Koff WT/Koff mutant: 1.17
